Publication PMC5562738, “Structural basis for the broad substrate specificity of the human tyrosylprotein sulfotransferase-1” (Scientific Reports, 2017)
Values belong to the molecule of their own block, whether it stands above or below them.

Tests used:
[1] = target: recombinant human TPST1 (Lys43-Lys341), as crystallised with PAP and C4P5Y5 (human) (UniProt O60507)
[2] = target: the molecule itself; assay: crystal structure; human TPST1 (2.5 mg/ml) with 2 mM PAP and 1 mM C4P5Y5, sitting-drop vapor diffusion at 20 °C, 0.1 M Tris-HCl pH 8.5; 1.6 Å
[3] = target: the molecule itself; assay: crystal structure; human TPST1 (5.0 mg/ml, His tag removed) with 2 mM PAP and 3 mM gastrin peptide, sitting-drop vapor diffusion at 20 °C, crystals soaked 1 d with 30 mM gastrin peptide; 2.3 Å

K m of tyrosine sulfation of the peptide by human TPST1 ([35S]PAPS, TLC, 30 °C, pH 6.0) [1]: 652 µM
Molecule: gastrin peptide

B1: recombinant human TPST1 (Lys43-Lys341), as crystallised with PAP and C4P5Y5 (enzyme, UniProt O60507 43-341, looked up)
chain: KLESTRTTVRTGLDLKANKTFAYHKDMPLIFIGGVPRSGTTLMRAMLDAHPDIRCGEETRVIPRILALKQMWSRSSKEKIRLDEAGVTDEVLDSAMQAFLLEIIVKHGEPAPYLCNKDPFALKSLTYLSRLFPNAKFLLMVRDGRASVHSMISRKVTIAGFDLNSYRDCLTKWNRAIETMYNQCMEVGYKKCMLVHYEQLVLHPERWMRTLLKFLQIPWNHSVLHHEEMIGKAGGVSLSKVERSTDQVIKPVNVGALSKWVGKIPPDVLQDMAVIAPMLAKLGYDPYANPPNYGKPDPK
notes: thrombin site after the His tag (pET15b); Ordered in the crystal: Tyr65-Pro338 and Ala64-Gly336; also called tyrosylprotein sulfotransferase-1; core domain of human TPST1; source: Origami (DE3) cells carrying pGro7 (GroEL, GroES), purified (Ni-NTA, Superdex 200)
stoichiometry N [2]: 2

B2: recombinant human TPST1 (Lys43-Lys341), His tag removed, as crystallised with PAP and the gastrin peptide (enzyme, UniProt O60507 43-341, looked up)
chain: KLESTRTTVRTGLDLKANKTFAYHKDMPLIFIGGVPRSGTTLMRAMLDAHPDIRCGEETRVIPRILALKQMWSRSSKEKIRLDEAGVTDEVLDSAMQAFLLEIIVKHGEPAPYLCNKDPFALKSLTYLSRLFPNAKFLLMVRDGRASVHSMISRKVTIAGFDLNSYRDCLTKWNRAIETMYNQCMEVGYKKCMLVHYEQLVLHPERWMRTLLKFLQIPWNHSVLHHEEMIGKAGGVSLSKVERSTDQVIKPVNVGALSKWVGKIPPDVLQDMAVIAPMLAKLGYDPYANPPNYGKPDPK
notes: also called tyrosylprotein sulfotransferase-1; protomer-1A; source: Origami (DE3) cells carrying pGro7 (GroEL, GroES), purified (Ni-NTA, Superdex 200), His tag removed with bovine thrombin; not shown: 6xHis, N-terminal, cleaved
stoichiometry N [3]: 2
